In paper PMC7504130:

Target: PARP-1 (UniProt P09874)
Test: EMSA
Settings: EMSA: 20 mM Tris-HCl pH 8, 30 mM KCl, 1.5 mM MgCl2, 1 mM DTT, 8% glycerol, 50 uM ZnAc, 2.5 ng/mL poly[dI-dC], 25 C, 50 nM DNA; pull-down: 20 mM Tris-HCl pH …

Chain of PARP-1 (P09874 2-1014): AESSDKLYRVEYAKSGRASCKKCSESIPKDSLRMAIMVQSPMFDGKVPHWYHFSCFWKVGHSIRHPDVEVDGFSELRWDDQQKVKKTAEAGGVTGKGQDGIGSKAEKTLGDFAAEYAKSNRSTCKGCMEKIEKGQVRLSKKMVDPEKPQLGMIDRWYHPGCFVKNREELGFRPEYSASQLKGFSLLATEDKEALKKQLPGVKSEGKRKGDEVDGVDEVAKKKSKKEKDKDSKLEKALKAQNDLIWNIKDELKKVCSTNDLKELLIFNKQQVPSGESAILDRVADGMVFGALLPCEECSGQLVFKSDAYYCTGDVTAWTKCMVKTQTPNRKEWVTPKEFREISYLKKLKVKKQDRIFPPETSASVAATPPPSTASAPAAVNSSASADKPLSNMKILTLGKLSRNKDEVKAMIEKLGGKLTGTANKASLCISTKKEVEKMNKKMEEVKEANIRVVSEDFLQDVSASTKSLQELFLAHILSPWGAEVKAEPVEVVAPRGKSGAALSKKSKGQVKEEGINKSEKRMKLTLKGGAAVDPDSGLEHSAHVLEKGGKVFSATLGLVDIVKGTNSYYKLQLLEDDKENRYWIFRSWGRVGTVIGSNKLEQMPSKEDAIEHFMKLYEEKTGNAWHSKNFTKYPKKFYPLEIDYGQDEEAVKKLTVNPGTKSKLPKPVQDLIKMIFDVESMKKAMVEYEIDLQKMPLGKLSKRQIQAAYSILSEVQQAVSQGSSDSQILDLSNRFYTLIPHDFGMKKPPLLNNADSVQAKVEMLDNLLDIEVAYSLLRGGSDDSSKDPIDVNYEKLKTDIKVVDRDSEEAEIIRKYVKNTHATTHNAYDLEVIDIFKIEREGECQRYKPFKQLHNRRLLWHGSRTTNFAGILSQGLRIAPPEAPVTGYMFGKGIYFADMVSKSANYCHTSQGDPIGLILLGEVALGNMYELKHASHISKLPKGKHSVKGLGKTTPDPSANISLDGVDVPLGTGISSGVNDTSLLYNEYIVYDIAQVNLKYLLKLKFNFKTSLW

Row | Sequence | Kd [nM]
1 | CGGGGAGAAGGAGGGGGCCGGGCCGGGC [Cy5.5-mid1 (G4 mid1)] | 360
2 | CGGGCCGGCGGGGGAGGAGCGGGGGCCGGGC [Cy5.5-mid2 (G4 mid2)] | 370
3 | AGGGCGGTGTGGGAAGAGGGAAGAGGGGGAGG [Cy5.5-32R (G4 32R)] | 200
